# Experimental data from the DeepSol protein solubility set.
# Assay: soluble on expression in E. coli; label from the status in PepcDB or PDB records
row,Sequence,soluble on expression in E. coli
1,MGTKREKDSLAFLLNSGARLLNNAFERRISEAGLGLTPGEARALLTVAVVDGSKQSDIAARLGIEPMTICAYLDKLQSLDLIERQQDPQDRRSKRIVLTKNSTDMLEAVRQEIDELVRHATRGLNEDEVALFRSFLQTLRDNLQPEQPGQSC,soluble
2,MGTRSKRSERCARCRLHIHRCVCPAMPRYSLATRVVLVMHHREYPKTTATGPLALEILPNSELRIHGEPGRSLNLSDLDTPARRILLLYPGDDVPVLDRELLERDGRPVTLVVPDGTWRQASRMGRRLPGLARAEMVRLPPGPPTEWGVRRENHPQGLATFEAIARALGIIESPDVQSGMEHLFRLMVRQTLGARGCAVDRDLEHHHHHH,soluble
3,MGTVEKSSNNDASVTDDIRSAEYYHGMVPRQDAEGFLKREGDFLVRKTEQMPGKVVLAMSVRVTDELCRHFMLNMDPTSNKFYFEHTHQESTISELINWHMTTKTPISAASGAKIRRPMERSPWLINHDSIVANKKLGEGAFGDVFIAELDQGGKQEVAVKTMRAEATREARLRFMKEARLMRKYQHKHVVKLIGVAIHEHPLMIVMEYCPNGSLLSHLKKNKVSLIEKLRFTTEAADGIAYLERSKCIHRDIAARNCLLSAKNELKISDFGMSDNKDEIKDETLEKVPIKWLAPETMQEKVYTHKTDIWTFGVLVWEIYSDGAEPYPGLTKIQTRAKIVVNDYRMKMPDGTHPTVADVVTGTCWQKNPEKRSTMDSIHKKLREFYESKK,not soluble
4,MGVFAQNLKFGHINAQEIVSAMPEFAKAQSDIEALDKQLTSELQRTQEEFNKKYQEFQQAIAKDSLPANIAERRQKELQDMMQRQEQFQQEAQQQMQKAQADAMAPIYKKLDDAIKAVGAAEGVIYIFDLARTPVAYVNESQSINLTPKVKTQLGIK,not soluble
5,MGVPMGNGDCGAEFKCPPNFHKSNRVNGVWCIKVYPGNMTWWEAERECRCTIKGGHLSGIESNSEKRYVEEQTLSILDDKNIKNGAVWLGAYRRKECPSGKVSSDSICHDEKTFQFTDQHTCKTLIFQDWAANQPTNNAGDDCAVLLASTEASGSNSEASGKAAVKNCLHVQGTTPILSSVGFVCGVKAAQEGGNYGGYGGGDFMVIGAAKPKH,not soluble
6,MGVSLSKGGNVSLTKEAPGLTAVIVGLGWDIRTTTGTDFDLDASALLLNSGGKVASDAHFIFFNNLKSPDGSVEHTGDNITGEGEGDDEQIKINLATVPADIEKIVFPVSIYDAENRQQSFGQVRNAFIRVVNQAGEAEIARYDLSEDASTETAMVFGELYRHGAEWKFRAIGQGYASGLRGIAQDFGVNV,soluble
7,MGVTLAKGGNVSLSKEAPGLTAVTVGLGWDVRTTTGAAYDLDASALLCSGSGRVVSDLHFVFYNNLTSPDGSVQHTGDNLTGEGEGDDESINVELAQVPAEVTKIVFPVSIHEAQSRGQSFGQVSNAFIRVVNRANNVELARYDLSEDASTETAMVFGELYRHGGEWKFRAVGQGYASGLAGIASDYGVNV,not soluble
8,MGWQTLKQQSVPARKRLLYLHIPFCATHCTFCGFYQNKLRDDSTATYTRYLLQELAMEADSPLHQSAPIHAVYFGGGTPTALAADELSQIIRAIRTSLPLAPDCEITVEGRAMDFDDERIDACLDAGANRFSIGIQTFDTRIRQRMARTSDKQQSIRFLERLCGRDRAAVVCDLMFGLPGQTPEIWREDLAIVSDLPLDGVDLYALNLLPTTPLAKAAENQRVALPDVVARRDFYRTGAAFLADSGWHQLSNSHWARTTRERNLYNLLIKQGADCLAMGSGAGGNINGQAYMMERSLERYYQQIDQGQKPIMMMTPASSTGPWQHQLQAGIEVGRIKLPQLTQHARELQPLLSQWHQAGLTCDDSTCLRLTNDGRFWANNLMQALQQIIPQLNAEEHAHLEHHHHHH,not soluble
9,MGYCIIIPAYNAARTLPAVVREVLGLGMPCLVVDDGSTDGTSATVEGLGVHLLRHDGNRGKGAALRTGFEWALAHGYSGVVTLDADGQHDPTAIPLLAATARERNVDILIASRDTQFREMAGLRSVWNRFGVWCMRKRTGFTITDSQSGFRWYSARLLKGVSLEASGYHLEMEILMKAWRGGFAIDSLPVAARVADGRATSHFRPVRDTWNICMTFLRHMLEHHHHHH,soluble
10,MGYDVTRFQGDVDEDLICPICSGVLEEPVQAPHCEHAFCNACITQWFSQQQTCPVDRSVVTVAHLRPVPRIMRNMLSKLQIACDNAVFGCSAVVRLDNLMSHLSDCEHNPKRPVTCEQGCGLEMPKDELPNHNCIKHLRSVVQQQQSRIAELEKTSAEHKHQLAEQKRDIQLLKAYMRAIRSVNPNLQNLEETIEYNEILEWVNSLQPARVTRWGGMISTPDAVLQAVIKRSLVESGCPASIVNELIENAHERSWPQGLATLETRQMNRRYYENYVAERIPGKQAVVVMACENQHMGDDMVQEPGLVMIFAHGVEEI,soluble
11,MHAFTTERLLIRPLISEDEHFYCYQYTDKKMMRIVGEPLTQEQASAAFHRALKANNLEQDTVRTWAIVDKAANDIIGTQALSWLATRQTTKPSSSPIEQVEIGIMLATRANGKLLPEEAVSAIMEYGFKQLNIGRINAFYANKNRATQRILKKIGYIFEPCLQDNTTDNGYQYFEQHQWSGVIITQLFPEEIEIKEPTVND,not soluble
12,MHANGIFFVPKYSSKYGKKQQTEKQWPVPEMGWQPGAVNSNFALQSSALILIGGFIRIIKVDSNATSCIHFGGIDAKPLLLQMNAYSLPAAEIRTKNGRIVARVF,not soluble
13,MHDEQFCVGYNFLEAEDTFREDGLEPVTLAIHGTPEVLQLLGNKPLNWDGPISFGLFVDFHSQKALNYISMLHKCDAAFKRQMTVHFAFRISPSQSECPMIQVLGYQDCATFLQKSKQLLEEIEDSFQIYPINLMRNIARRGAKSDLHLIIDTDMMMSTNFAKMVKPIANRMIDGKNKQVLVVRRFETNENELPMSFGDLEEGIENHKTFQFHHKFFFVGHQIPNLMEWFERSHASNDVVAWEIPYTGNDWEVQIILHRNDPYNVEYFPSRVKDMQSLIYKLCRANYTFNLLSHVFNVHKGIKEDDTMYSKVVTAHTKRQGRLRTLSRYVTEIDRKYPDTMKRCGQFLL,not soluble
14,MHDNTIKSISKDYFDYLQTESKFIPLENETIEFYSPIVDYFGDSISVNISFSGDRYKLTDHGETLWNMEQLGIDLTSNKKQKKYQLLNNIVQNYSLVIENKHINFYTNRINLSQAIHDYVLAISEISYLGILKKENIKSLFKDEVMQYFLSNRKIYPNIFPEFKVEGKSKLIHSFEAVFPGEATEYVKTIKRIDKNNAKNVLFDWNDVEIHRNKNFDSNARLNIITEQQDDISEAVSTMLSQYNVEVFSFENKKQLEEKFSNV,not soluble
15,MHENQQPQTEAFELSAAEREAIEHEMHHYEDPRAASIEALKIVQKQRGWVPDGAIHAIADVLGIPASDVEGVATFYSQIFRQPVGRHVIRYCDSVVCHINGYQGIQAALEKKLNIKPGQTTFDGRFTLLPTCCLGNCDKGPNMMIDEDTHAHLTPEAIPELLERYK,not soluble
16,MHESVTANIENVKKVAHHIQKLTSIVPEIGIICGSGLGKLADGVKDKITIPYTKIPNFPQTSVVGHSGNLIFGTLSGRKVVVMQGRFHMYEGYSNDTVALPIRVMKLLGVKILMVSNAAGGLNRSLKLGDFVILKDHIYLPGLGLNNILVGPNQEAFGTRFPALSNAYDRDLRKLAVQVAEENGFGNLVHQGVYVMNGGPCYETPAECTMLLNMGCDVVGMSTIPEVVIARHCGIQVFAVSLVTNISVLDVESDLKPNHEEVLATGAQRAELMQSWFEKIIEKLPKD,soluble
17,MHEYELNQDLLAENKRLAEKNREALRESGTVAVNIMGAIGSGKTLLIERTIERIGNEVKIGAMLGDVVSKADYERVRRFGIKAEAISTGKECHLDAHMIYHRLKKFSDCDLLLIENVGNLICPVDFDLGENYRVVMVSVTEGDDVVEKHPEIFRVADLIVINKVALAEAVGADVEKMKADAKLINPRAKIIEMDLKTGKGFEEWIDFLRGILNVHSDSGQN,not soluble
18,MHFADPREAREFLAAHPEVRSIELFLIDANGVPRGKLLHRDELLAVYESGRPLPSTILGLTINGDDVEETGLVWDVGDADCWTFPLPGSLTLQPWRQSPTGQVQVSMHPELGLPAAAGDPRHVLQRVIHSLQAEGFHPVMAVELEFYLLDRERDSDGRPLPALQMNGQRPRATQVYGVYELEQLQPFLDDLYAACEAQGLPARTAISEYAPGQVEITLQHRFDTLQAIDEGVRYKRLVKGVANRHGLQACFMAKPFADLSGSGLHLHVSLADAAGNNLFASEDPAGTPLLRQAIGGMKACLLESLALFCPNANSFRRFQANSYAPLAPTWGINNRTVSLRVPGGPASSRHIEHRICGADANPYLAAAALLAAVRLGIRERLDPGAPITGNGYAQATQALPSDWLTALRALEGSAWAREALGEDFLKIYLAIKQAEYRAFMGEVGE,not soluble
19,MHFPISMAVPARFTGPLPESCDVVVIGAGVIGVMTGWYLAERGFRVTVCEKGRVAGEQSSRNWGWIRQQGRDPDELPIMVESLRLWQGLAQSLGNPFGFRQTGVLYLANREEQLSQYEGWMIHAAAQGLDTRLLGRRELAERLPGAADLWQGGLFTASDARAEPWLAVPALAAGAAERGVTILEDCAVRALDLEGGRVAGVTTERGRIRAPEVVLAGGAWSSLFARAHGVNLPQLSVLSSVAQTEPLPEILPGAAADDAFAFRRREDGGYTIAGGSEHDFFIGPDAFRHALKYRKAVKKDFLSTHYRWLAPRDYPDGWNTPRTWSKGAPTPFEAMRVLNPAPNLATLSRAAAAFGRAFPGVGRPKIRATWAGMIDTMPDVVPVIDRAPSVPGLTIATGMSGHGFGIGPGVGRVVADLVAGRPVGHDLTRFRLSRFTDGSEITLGPSL,not soluble
20,MHFYKYGVLIDQLRDSFEWRVAFLDGSVSDHCCITVPSEKFNFPPTPGATVKAKFEHANSFLPSLVAQCGSFEWFRDVTVVNSKVVIFAIVHFSNECLERDPFKINGMDYSIIENENTDFQKIVLPTRVLQTSITSRSNLQNTDTPFIYRIGVCWEPISFENGVTVNWRYYADFPITPIFELYYRETTLPYIAESMVYGVLEGVVIAENDHGALFWTPKMGCAILPSTSLDTPMPSLGSVHVILVKRCIPENSFGFSCSYELLSSFRSTEWPNLKVITDQITRKVYIEANASCRSMMENQDFPSMNVPHIGKVFRGLQQYRDKLSAGHLYDFRMEFQKEEGSFVPTIVDLCLEEDEMVDCRVVYISNETSTYFAVLDPSSNSFDRFKQSIDYIAIPFRVLFCANGVHVKNEELLLNSYKVRVRVPRNRHDVVNAIHVEHVIQSPKDPAYFITNGSVWLRTTVKFQNASRYELLCPLLEQKIIDVNGVTAAMSLTQEFTVHAQFVLMERNVPVFVVRQLASTVREHPRTTNYPSRSLNLSYEVSGALARTNPNGQLSAADNNIVLINDSISLDHNLPDTGEYPTILNESSFERQLLFDNQSIADSASTSGDFILTESVYESSSAASTCTVIDRNDARFSALNDDSNILISESWLDSTNQHSETTMDTPEIITESFYESTHDQASSRASTVDRLASDVDKISIGRPDYSPPPRRRIFGYSTPGDRVRPRNSYGSSSSGSLNGRPKRRAPYGFRQIRNITPHNVLLRDIIYNNINNRKMFVEQNKNAILKCWNRLPLAQVTRTKKIFCTVIAVESIKFPPSFDDTCIKGLVRFAVVYDDMNVKNTSVVVPIGGNFNNLPKSFQLGDAYKVFHFSSYKDLICRIGGFSHGLNGELSRVAPVNCISNPETVNGRYGQRYLRCTVNAARPAISEIESDVFELWTVHGLPGFIIVEKVPLLMNHLNKEPINPDVHHQHMYTCIIEPLAGGPVEASILKDVKEGEDICIFWRLVVEFSDTVPLPRLKEKTDKVVPQIRTEPVQSGTFSVDDYGCWETLRINSILAQEKLDRMRAVGDPRVKMIDGPDLRPEIEVRKVDVNTRREKMFAAFDALLEKLPQLHSEGILGYVLEDDLRVKIKKLTPMNDNNHKFTFTFRNGSLEIGVNYLTDMLTRGKIYKVMNEMKKHVPLLKVLSDCIGLNTTYIKKTDAVKMMLHYMYRNELHTYL,not soluble
